Legend:
[1] = molecular target: human full-length Notch1 with C-terminal FLAG tag, stably expressed on 293 FlpIn (TREx) cells (human) (UniProt P46531); test: FACS, 293 FlpIn (TREx) cells expressing Notch1
[2] = molecular target: endogenous human Notch1 on 293 FlpIn (TREx) parental, LS-1034 and BxPC3 cells (human) (UniProt P46531); test: FACS, LS-1034 and BxPC3 cells

IgG isotype control antibody
MFI [1]: 9
MFI [2]: 9

From patent publication US20110286916A1
